Laboratory results from paper PMC10362037.

Biological target: SARS-CoV-2 (2019-nCov) Spike S1 (Abclonal, RP01262) (SARS-CoV-2) (UniProt P0DTC2)
Assay: SPR

Substance	Kd [µM]
Human integrin αvβ3 (R&D Systems, 3817-AV-050) (from UniProt P06756 31-1048; P05106 27-718) (complex)	0.0404
suPAR (purified protein of the SPR assay) (from UniProt Q03405 23-305) (natural protein)	> 2000
